In US20200017862:

What was measured:
[1] = target: LIPK PCNA (L126A-I128A-P253A-K254A PCNA, His-tagged), P18248
[2] = target: PK PCNA (P253A-K254A PCNA, His-tagged), P18248
[3] = target: WT His-tagged PCNA (recombinant Xenopus PCNA), P18248
[4] = target: LI PCNA (His-tagged mutant Xenopus PCNA), P18248
[5] = target: PCNA, endogenous, in Xenopus egg extract (HSS), P18248
Sequence of PCNA, endogenous, in Xenopus egg extract (HSS), P18248 (P18248 whole entry): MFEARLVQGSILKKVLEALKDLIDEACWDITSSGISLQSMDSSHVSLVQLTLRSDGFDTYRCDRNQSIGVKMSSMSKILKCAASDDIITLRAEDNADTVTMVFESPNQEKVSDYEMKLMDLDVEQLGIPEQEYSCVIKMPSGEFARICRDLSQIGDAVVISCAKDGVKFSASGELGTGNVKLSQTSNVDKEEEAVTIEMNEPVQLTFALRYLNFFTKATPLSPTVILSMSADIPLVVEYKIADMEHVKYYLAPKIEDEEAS

Sequence of LI PCNA (His-tagged mutant Xenopus PCNA), P18248 (P18248 other isoform, or with tags, fused parts or gaps mutant): as the sequence (P18248 whole entry) above, with L126A, I128A counted along it
Sequence of PK PCNA (P253A-K254A PCNA, His-tagged), P18248 (P18248 whole entry P253A/K254A): as the sequence (P18248 whole entry) above, with P253A, K254A counted along it
Sequence of WT His-tagged PCNA (recombinant Xenopus PCNA), P18248 (P18248 whole entry): as the sequence (P18248 whole entry) above
Sequence of LIPK PCNA (L126A-I128A-P253A-K254A PCNA, His-tagged), P18248 (P18248 whole entry L126A/I128A/P253A/K254A): as the sequence (P18248 whole entry) above, with L126A, I128A, P253A, K254A counted along it

Protein | exonuclease activity on FAM-labeled gapped dsDNA (Type I resected products), purified proteins in vitro [1] | exonuclease activity on FAM-labeled gapped dsDNA (Type I resected products), purified proteins in vitro [2] | exonuclease activity on FAM-labeled gapped dsDNA (Type I resected products), purified proteins in vitro [3] | exonuclease activity on FAM-labeled gapped dsDNA (Type I resected products), purified proteins in vitro [4] | 3'-5' SSB end resection of FAM-SSB in APE2-depleted HSS [5] | SSB-induced Chk1 phosphorylation in APE2-depleted HSS [5] | hydrogen peroxide-induced Chk1 phosphorylation in APE2-depleted LSS [5] | recruitment of RPA32, ATR, ATRIP, TopBP1, and Rad9 to SSB plasmid in APE2-depleted HSS [5]
GST-APE2 (recombinant GST-tagged Xenopus APE2) (protein) MKIVSWNINGIRATRVGLKETLDSLDADIICLQETKVTRDLLDEPSAIVEGYNSYFSFSRVRSGYSGVATFCKSSTTPQAAEEGLSGVFCNRTGSVGCYGNTEQFLEEELQSLDQEGRAVLTQHRILNCEDKEETLTVINVYCPRADPEKPERKTYKLRFYHLLQTRAEAILQNGGHVIILGDVNTSHRPLDHCDPTDLETFEENPGRQWLNQFLGDPIPSQKGDSETVMPPSAGSGLFYDSFRYFHPTQKNAFTCWCSASGARQTNYGTRIDYILGNRELVESEFLDSVIMPEVEGSDHCPVKAFMKCQPIAANKCPPLCTKYLPEFAGRQQKLLQFLVKKENTLGNTTEESSELTGTPSFTEGADISTVRKRPSDKLNSTSKKKSKIVTKNGQGNLLSFFKPERQKLTMATECNPIEVPICKKEKTVQKDLQPATPAVKYNKPQTAFWKSLLKGPPPPPNCKGHSEPCVLRTVKKAGPNCGRQFYVCARPEGHSSNPQARCNFFLWLTKKAGCED | The gapped dsDNA was catalyzed into Type I resected products by recombinant APE2 with the presence of WT PCNA, but not LIPK PCNA, LI PCNA, or PK PCNA | The gapped dsDNA was catalyzed into Type I resected products by recombinant APE2 with the presence of WT PCNA, but not LIPK PCNA, LI PCNA, or PK PCNA | The gapped dsDNA was catalyzed into Type I resected products by recombinant APE2 with the presence of WT PCNA, but not LIPK PCNA, LI PCNA, or PK PCNA | The gapped dsDNA was catalyzed into Type I resected products by recombinant APE2 with the presence of WT PCNA, but not LIPK PCNA, LI PCNA, or PK PCNA | – | – | – | –
WT Myc-APE2 (recombinant Myc-tagged Xenopus APE2) (protein) MKIVSWNINGIRATRVGLKETLDSLDADIICLQETKVTRDLLDEPSAIVEGYNSYFSFSRVRSGYSGVATFCKSSTTPQAAEEGLSGVFCNRTGSVGCYGNTEQFLEEELQSLDQEGRAVLTQHRILNCEDKEETLTVINVYCPRADPEKPERKTYKLRFYHLLQTRAEAILQNGGHVIILGDVNTSHRPLDHCDPTDLETFEENPGRQWLNQFLGDPIPSQKGDSETVMPPSAGSGLFYDSFRYFHPTQKNAFTCWCSASGARQTNYGTRIDYILGNRELVESEFLDSVIMPEVEGSDHCPVKAFMKCQPIAANKCPPLCTKYLPEFAGRQQKLLQFLVKKENTLGNTTEESSELTGTPSFTEGADISTVRKRPSDKLNSTSKKKSKIVTKNGQGNLLSFFKPERQKLTMATECNPIEVPICKKEKTVQKDLQPATPAVKYNKPQTAFWKSLLKGPPPPPNCKGHSEPCVLRTVKKAGPNCGRQFYVCARPEGHSSNPQARCNFFLWLTKKAGCED | – | – | – | – | VVT APE2 but not C470A APE2 rescued the deficiency of SSB end resection of FAM-SSB in APE2-depleted HSS | WT, but not C470A, APE2 was found to rescue the SSB-induced Chk1 phosphorylation in APE2-depleted HSS | VVT APE2, but not G483A-R484A APE2, rescued the hydrogen peroxide-induced Chk1 phosphorylation in APE2-depleted LSS system | WT APE2, but not C470A APE2, rescued the recruitment of RPA32, ATR, ATRIP, TopBP1, and Rad9 to SSB in APE2-depleted HSS
C470A Myc-APE2 (protein) MKIVSWNINGIRATRVGLKETLDSLDADIICLQETKVTRDLLDEPSAIVEGYNSYFSFSRVRSGYSGVATFCKSSTTPQAAEEGLSGVFCNRTGSVGCYGNTEQFLEEELQSLDQEGRAVLTQHRILNCEDKEETLTVINVYCPRADPEKPERKTYKLRFYHLLQTRAEAILQNGGHVIILGDVNTSHRPLDHCDPTDLETFEENPGRQWLNQFLGDPIPSQKGDSETVMPPSAGSGLFYDSFRYFHPTQKNAFTCWCSASGARQTNYGTRIDYILGNRELVESEFLDSVIMPEVEGSDHCPVKAFMKCQPIAANKCPPLCTKYLPEFAGRQQKLLQFLVKKENTLGNTTEESSELTGTPSFTEGADISTVRKRPSDKLNSTSKKKSKIVTKNGQGNLLSFFKPERQKLTMATECNPIEVPICKKEKTVQKDLQPATPAVKYNKPQTAFWKSLLKGPPPPPNCKGHSEPAVLRTVKKAGPNCGRQFYVCARPEGHSSNPQARCNFFLWLTKKAGCED | – | – | – | – | VVT APE2 but not C470A APE2 rescued the deficiency of SSB end resection of FAM-SSB in APE2-depleted HSS | WT, but not C470A, APE2 was found to rescue the SSB-induced Chk1 phosphorylation in APE2-depleted HSS | – | WT APE2, but not C470A APE2, rescued the recruitment of RPA32, ATR, ATRIP, TopBP1, and Rad9 to SSB in APE2-depleted HSS
G483A-R484A Myc-APE2 (protein) MKIVSWNINGIRATRVGLKETLDSLDADIICLQETKVTRDLLDEPSAIVEGYNSYFSFSRVRSGYSGVATFCKSSTTPQAAEEGLSGVFCNRTGSVGCYGNTEQFLEEELQSLDQEGRAVLTQHRILNCEDKEETLTVINVYCPRADPEKPERKTYKLRFYHLLQTRAEAILQNGGHVIILGDVNTSHRPLDHCDPTDLETFEENPGRQWLNQFLGDPIPSQKGDSETVMPPSAGSGLFYDSFRYFHPTQKNAFTCWCSASGARQTNYGTRIDYILGNRELVESEFLDSVIMPEVEGSDHCPVKAFMKCQPIAANKCPPLCTKYLPEFAGRQQKLLQFLVKKENTLGNTTEESSELTGTPSFTEGADISTVRKRPSDKLNSTSKKKSKIVTKNGQGNLLSFFKPERQKLTMATECNPIEVPICKKEKTVQKDLQPATPAVKYNKPQTAFWKSLLKGPPPPPNCKGHSEPCVLRTVKKAGPNCAAQFYVCARPEGHSSNPQARCNFFLWLTKKAGCED | – | – | – | – | – | G483A-R484A APE2, which is deficient in interaction with ssDNA and PCNA CTM motif (FIGS. 12D and 12E), also failed to rescue the SSB-induced Chk1 phosphorylation in APE2-depleted HSS | VVT APE2, but not G483A-R484A APE2, rescued the hydrogen peroxide-induced Chk1 phosphorylation in APE2-depleted LSS system | –
